Experimental data taken from patent US5945585.

How the values were obtained:
[1] = biological target: [14C]oleoyl-ACP made from E. coli acyl carrier protein (E. coli) (UniProt P0A6A8); conditions: scale: times the E. coli background thioesterase activity
[2] = biological target: [14C]oleoyl-ACP made from E. coli acyl carrier protein (E. coli) (UniProt P0A6A8); conditions: scale: pmoles per min per microliter of cell lysate
caproyl-ACP (10:0-ACP) = conditions: scale: pmoles per min per microliter of cell lysate
lauryl-ACP (12:0-ACP) = conditions: scale: pmoles per min per microliter of cell lysate
[3] = biological target: [14C]stearoyl-ACP made from E. coli acyl carrier protein (E. coli) (UniProt P0A6A8)
[4] = biological target: [14C]oleoyl-ACP made from E. coli acyl carrier protein (E. coli) (UniProt P0A6A8)

β-galactosidase fusion protein of the Brassica napus oleoyl-ACP thioesterase (p5C insert in pBluescript SK, correct orientation) (enzyme)
Oleoyl-ACP thioesterase activity [1]: 26

β-galactosidase fusion protein of the Cuphea viscossisima oleoyl-ACP thioesterase precursor (p1A insert in pBluescript) (enzyme)
activity per microliter of cell lysate [2]: 15.5 | activity per microliter of cell lysate (caproyl-ACP (10:0-ACP)): 0.05 | activity per microliter of cell lysate (lauryl-ACP (12:0-ACP)): 0.1

B1: soybean seed acyl-ACP thioesterase, purified from developing soybean seeds (Glycine max cultivar Wye) (enzyme)
chain: RVEADPGTLADRLRVGSLTEDGLSYKEKFIVRSYEVGINKTATVETIANLLQEVGCNHAQSVGYSTDGFATTPTMRKLRLIWVTARMHIEIYKYPAWSDIVEIETWCQGEGRVGTRRDFILKDYATDEVIGRATSKWVMMNQDTRRLQKVSDDVKEEYLVFCPREPRLAIPEADSNSLKKIPKLEDPAQYSRLGLVPRRADLDMNQHVNNVTYIGWVLESMPQEIIDSHELQSITLDYRRECGQHDIVDSLTSVEAIQGGAEAVPELKGTNGSATAREDKHEHQQFLHLLRLSTEGLEINRGRTEWRKKAPR
Net pmol/µL/min (standard acyl-ACP thioesterase assay) [3]: 4.07 pmol/µL/min

B2: soybean seed acyl-ACP thioesterase expressed from the phaseolin:soybean thioesterase transgene (pZPHTE1) in Brassica napus line 241 (enzyme)
chain: RVEADPGTLADRLRVGSLTEDGLSYKEKFIVRSYEVGINKTATVETIANLLQEVGCNHAQSVGYSTDGFATTPTMRKLRLIWVTARMHIEIYKYPAWSDIVEIETWCQGEGRVGTRRDFILKDYATDEVIGRATSKWVMMNQDTRRLQKVSDDVKEEYLVFCPREPRLAIPEADSNSLKKIPKLEDPAQYSRLGLVPRRADLDMNQHVNNVTYIGWVLESMPQEIIDSHELQSITLDYRRECGQHDIVDSLTSVEAIQGGAEAVPELKGTNGSATAREDKHEHQQFLHLLRLSTEGLEINRGRTEWRKKAPR
Thioesterase Activity (nmole min^-1 embryo^-1), nmoles of 18:1-ACP hydrolyzed per embryo per minute (nmole min^-1 embryo^-1) [4]: 4.53
